8 molecules from US20260265403A1 (TJ BIOPHARMA SHANGHAI, published 2026) can be followed below.

Positions count from the first letter of the chain named.

In this assay the target is T1, human CD24 on cells (human, UniProt P25063 27-59).
T1 chain (looked up): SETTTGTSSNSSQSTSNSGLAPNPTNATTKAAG
The assay can be described thus: cell-based or functional assay.

B1: 74-H4C6 (4451), IgG1, Kappa (antibody, V domains shown)
VH: EVQLQQSGPELVKPGASVKISCKASGYDFTGYHMNWVKQSPEKSLEWIGEINPITSDKTFNQKFKSKATLTVDRSSSTAYMYLKSLTSEDSAVYYCARRDYGTSLDYWGQGTTLTVSS
VL: DVQITQSPSYLAASPGETITIYCRASKSISKYLAWYQEKPEKTNRLLIYAGSTLHSGIPSRFRGSGSGKDFTLTVSGLEPEDFAMYYCQQHNEYPITFGAGTKLELK
As for B1, the “EC50 of Phagocytosis assay, IgG1, Kappa; HEK293-CD24” value (shortened to “EC50 … IgG1, Kappa; HEK293-CD24”) came out at 0.05 µg/mL; the “EC50 of Phagocytosis assay, IgG1, Kappa; MCF-7” value (shortened to “EC50 … IgG1, Kappa; MCF-7”) was determined as 0.28 µg/mL; the “EC50 of Phagocytosis assay, IgG1, Kappa; NALM6” value (“EC50 … IgG1, Kappa; NALM6” for short) is 0.19 µg/mL; the “EC50 of Phagocytosis assay, IgG1, Kappa; OVCAR3” value (“EC50 … IgG1, Kappa; OVCAR3” below) was found to be 0.1 µg/mL.

B2: 69-D5G10, IgG4, Kappa (antibody, V domains shown)
VH: EVKLEESGGGLVQPGGSMKLSCVVSGLTFSNHWMNWVRQSPEKGLEWVAQIQLKSDNYATRFAESVKGRFTISRDDSKSDVYLQMNNLRTEDTGIYYCTTGTDYWGQGTTLTVSS
VL: not shown
B2: the “EC50 of Phagocytosis assay, IgG4, Kappa; HEK293-CD24” value (“EC50 … IgG4, Kappa; HEK293-CD24” below) was found to be 0.37 µg/mL; the “EC50 of Phagocytosis assay, IgG4, Kappa; MCF-7” value (“EC50 … IgG4, Kappa; MCF-7” for short) worked out at 1.02 µg/mL; the “EC50 of Phagocytosis assay, IgG4, Kappa; NALM6” value (“EC50 … IgG4, Kappa; NALM6” below) was 0.55 µg/mL; the “EC50 of Phagocytosis assay, IgG4, Kappa; OVCAR3” value (shortened to “EC50 … IgG4, Kappa; OVCAR3”) worked out at 0.51 µg/mL.

B3: 59-G9D7, IgG1, Kappa (antibody, V domains shown)
VH: QVQLQQPGADLVKPGASVKLSCKASGYTVTTYWMHWVRQRPGRGLEWIGRIDPNSGETKYSEKFKNKATLTVDRPSSTAYMQLSSLTFEDSAVYFCAIYYYLNNFLFDYWGQGTTLTVSS
VL: ENVLTQSPAIMSASPGEKVTMTCRASSSVSSSYLHWYQKKSGASPKLWIYSTSNLASGVPARFSGSGSGTSYSLTISSVEAEDAATYYCQQYSGYPLTFGAGTKLELK
As for B3, the “EC50 … IgG1, Kappa; HEK293-CD24” value came out at 4.76 µg/mL; the “EC50 … IgG1, Kappa; MCF-7” value was 2.05 µg/mL; the “EC50 … IgG1, Kappa; NALM6” value is 7.9 µg/mL; the “EC50 … IgG1, Kappa; OVCAR3” value amounted to 0.97 µg/mL.

B4: 63-C5A5, IgG4, Kappa (antibody, V domains shown)
VH: EVNLEESGGGLVQPGGSMEFSCVASGLTFSDHWMNWVRQSPEKGLEWVAQIQLKSDNYAIRYVESVKGRFSISRDDSKSSVYLQMNNLRAEDSGIYYCTTGTDYWGQGTTLTVSS
VL: not shown
For B4, the “EC50 … IgG4, Kappa; HEK293-CD24” value was 0.46 µg/mL; the “EC50 … IgG4, Kappa; MCF-7” value came to 24.7 µg/mL; the “EC50 … IgG4, Kappa; NALM6” value worked out at 6.58 µg/mL; the “EC50 … IgG4, Kappa; OVCAR3” value was determined as 1.62 µg/mL.

B5: 66-D1B10, IgG1, Kappa (antibody, V domains shown)
VH: EVRLEESGGGFVQPGGSMKLSCVASGLTFPNHWMNWVRQSPERGLAWVAQIQLKSDNYATRYVESVKGRFTISRDDSESTVYLQMNNLRAEDTGIYYCTTGTDYWGQGTTLTVSS
VL: not shown
On to B5, for which the “EC50 … IgG1, Kappa; HEK293-CD24” value amounted to 7.46 µg/mL; the “EC50 … IgG1, Kappa; MCF-7” value is 0.84 µg/mL; the “EC50 … IgG1, Kappa; NALM6” value was 2.48 µg/mL; the “EC50 … IgG1, Kappa; OVCAR3” value turned out to be 0.73 µg/mL.

B6: 76-F8C6, IgG1, Kappa (antibody, V domains shown)
VH: B5 VH with R3K, F11L, L27F, P30T, H32S, A46D, E78K, S79N, T80S, G106S
VL: not shown
Take B6: the “EC50 … IgG1, Kappa; HEK293-CD24” value was 0.09 µg/mL; the “EC50 … IgG1, Kappa; MCF-7” value was determined as 0.47 µg/mL; the “EC50 … IgG1, Kappa; NALM6” value came to 0.42 µg/mL; the “EC50 … IgG1, Kappa; OVCAR3” value worked out at 0.17 µg/mL.

B7: 65-F3C7, IgG1, Kappa (antibody, V domains shown)
VH: B5 VH with P41L, E78K, A90P
VL: not shown
For B7, the “EC50 … IgG1, Kappa; HEK293-CD24” value is 0.75 µg/mL; the “EC50 … IgG1, Kappa; MCF-7” value stood at 0.4 µg/mL; the “EC50 … IgG1, Kappa; NALM6” value turned out to be 2.01 µg/mL; the “EC50 … IgG1, Kappa; OVCAR3” value stood at 0.23 µg/mL.

B8: 65-F3C7, IgG4, Kappa (antibody, V domains shown)
VH: B5 VH with P41L, E78K, A90P
VL: not shown
In the case of B8, the “EC50 … IgG4, Kappa; HEK293-CD24” value stood at 0.09 µg/mL; the “EC50 … IgG4, Kappa; MCF-7” value turned out to be 2.25 µg/mL; the “EC50 … IgG4, Kappa; NALM6” value was 6.01 µg/mL; the “EC50 … IgG4, Kappa; OVCAR3” value worked out at 5.74 µg/mL.
